For data set [1], the target named is T1, c-Jun (Mus musculus, UniProt P05627 P05627:1-334). Description: EMSA; consensus MARE contains core TRE site. As to conditions: tags: full-length, pGEM4, rabbit reticulocyte lysate TnT; label: 32P. On the procedure: (§1) Electrophoretic mobility shift assays (EMSA) were performed as follows. 100 ng of double-stranded oligonucleotides were end-labeled with γ-³²P-dATP (DuPont NEN Research Product, Wilmington, Del.) using T4 polynucleotide kinase (Pharmacia LKB Biotechnology, Inc., Piscataway, N.J.). The labeled ds-oligonucleotides were fractionated on 15-20% polyacrylamide gels, eluted overnight at 37° C. in 1×TE and precipitated in ethanol. Binding assays were performed at room temperature for 20 minutes using 0.5 μg of recombinant proteins or 4 μl of in vitro translated products, 500 ng poly(dI-dC), and 20,000 cpm of probe in a 15 μl volume of 20 mM HEPES (pH 7.9), 100 mM KCl, 5% glycerol, 1 mM EDTA, 5 mM DTT, 0.1% NP-40, and 0.5 mg/ml BSA. The samples were then fractionated in 4% non-denaturing polyacrylamide gel containing 0.5×TBE at room temperature. Oligonucleotides derived from the murine IL4 promoter used in EMSA were: […]
Background: A gel shift assay detects complexes by their altered migration in electrophoresis.

Data set [2] concerns the target T2, c-Maf (b-zip domain, aa 171-371) (UniProt P54843 P54843:171-370). Description: EMSA; 20 mM HEPES pH 7.9, 100 mM KCl, room temperature. As to conditions: tags: S-Tag, pET29, E. coli BL21(DE3); label: 32P. The protocol:
as §1

Data set [3] has as its target T2, c-Maf (b-zip domain, aa 171-371). The experiment in a line: EMSA; competed by homologous unlabeled probe; additional complex formed with NF-ATp. Particulars: tags: S-Tag, pET29, E. coli BL21(DE3); label: 32P. On the procedure: (§2) Electrophoretic mobility shift assays (EMSA) were performed as follows. 100 ng of double-stranded oligonucleotides were end-labeled with γ-³²P-dATP (DuPont NEN Research Product, Wilmington, Del.) using T4 polynucleotide kinase (Pharmacia LKB Biotechnology, Inc., Piscataway, N.J.). The labeled ds-oligonucleotides were fractionated on 15-20% polyacrylamide gels, eluted overnight at 37° C. in 1×TE and precipitated in ethanol. Binding assays were performed at room temperature for 20 minutes using 0.5 μg of recombinant proteins or 4 μl of in vitro translated products, 500 ng poly(dI-dC), and 20,000 cpm of probe in a 15 μl volume of 20 mM HEPES (pH 7.9), 100 mM KCl, 5% glycerol, 1 mM EDTA, 5 mM DTT, 0.1% NP-40, and 0.5 mg/ml BSA. The samples were then fractionated in 4% non-denaturing polyacrylamide gel containing 0.5×TBE at room temperature. Oligonucleotides derived from the murine IL4 promoter used in EMSA were:
(§3) NF-AT proteins interact cooperatively with AP-1 family member proteins to form higher mobility complexes on IL-2 and IL-4 promoter DNA on EMSA (Jain, J. (1993) Nature 365:353-355; Rooney, J. et al. (1995) Immunity 2:545-553). […] To determine if c-Maf interacted with NF-AT in the presence of DNA, recombinant NF-ATp and c-Maf proteins were used separately or together in EMSA with the 33 bp oligonucleotide containing both the NF-AT and adjacent MARE sites. […]

The target of data set [4] is T1, c-Jun. The experiment in a line: EMSA. As to conditions: tags: full-length, pGEM4, rabbit reticulocyte lysate TnT; label: 32P. On the procedure:
as §2, §3

T2 sequence (P54843 171-370, one chain of several): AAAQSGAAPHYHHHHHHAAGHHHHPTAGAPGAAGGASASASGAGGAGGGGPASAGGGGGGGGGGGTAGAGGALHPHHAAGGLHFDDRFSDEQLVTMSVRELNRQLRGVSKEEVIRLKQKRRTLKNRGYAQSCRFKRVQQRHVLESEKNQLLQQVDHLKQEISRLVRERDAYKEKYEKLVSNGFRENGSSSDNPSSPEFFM
T1 sequence (P05627 whole entry, one chain of several): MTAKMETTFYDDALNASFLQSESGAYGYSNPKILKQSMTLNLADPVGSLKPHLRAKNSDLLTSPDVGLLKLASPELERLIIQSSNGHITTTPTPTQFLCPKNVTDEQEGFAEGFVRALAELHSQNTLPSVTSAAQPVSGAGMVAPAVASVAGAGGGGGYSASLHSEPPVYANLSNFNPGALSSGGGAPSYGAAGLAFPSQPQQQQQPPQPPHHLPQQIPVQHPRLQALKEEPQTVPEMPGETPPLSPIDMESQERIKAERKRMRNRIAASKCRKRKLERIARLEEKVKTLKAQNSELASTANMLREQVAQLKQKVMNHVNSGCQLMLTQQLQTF

B1: consensus MARE (dsDNA)
DNA 1: GGAATTGCTGACTCAGCATTACT
DNA 2: AGTAATGCTGAGTCAGCAATTCC
As to B1, the binding result (with c-Jun [1]; in data set [2]) was “binds” in each case.

B2: IL-4 promoter -59 to -27 wild type (dsDNA)
DNA 1: CTCATTTTCCCTTGGTTTCAGCAACTTTAACTC
DNA 2: GAGTTAAAGTTGCTGAAACCAAGGGAAAATGAG
As for B2, the binding result in data set [3] is recorded as “binds”; with c-Jun [4] it was “no binding”.

For the origin of these results see patent US20030100114, “Methods for regulating T cell subsets by modulating transcription factor activity” (President and Fellows of Harvard College, published 2003).
